Positions count from the first letter of the chain named. Names may count otherwise.

B1: CyPPO10 F360V: CyPPO10 (SEQ ID NO: 2) PPO variant (protein)
chain: MIEVDVAIVGGGLSGLSVAWRLQRSAPHYSGVLLEASDRLGGNITTQAAEGFVWELGPNSFAPTPALLQLIAEVGLHSELIRGDRHLPRYIYWRGELYPLEPTRPLALATSNLLSPWGKVRAALGALGFVPPYLGSGDESVDSFFRRHLGQEVAERLVAPFVSGVYAGDPQQLSAAAAFRRIAQLEKLGGSLIAGALRLRRQQPPQPKPPAQVQMRPGELGSFREGLAALPRAIAQQLKAPLHLQTPVEAITPEPKGGYLLRSGEQTWHARSVVLATPAYQTAELVAPFQPAIARALATIPYPTVACVVLAYPAGLGRSVRPGFGVLVPRGQGIRTLGTIWSSCLFPQRTPAGWQVFTSVIGGATDPDLASLREEAIVEQVQQDLTRLLDLPAAKARLLGMKVWRRAIPQYIVGYPQQWQQVTHALTQTPGLFLCSNYAEGVALGDRVEHGNRTAAAVAAYLAGGQS
modifications: Synthetic CyPPO10
B2: CyPPO10 N59T + F360V: CyPPO10 (SEQ ID NO: 2) PPO variant (protein)
chain: B1 chain with N59T
modifications: Synthetic CyPPO10
B3: CyPPO10 R89A + F360L: CyPPO10 (SEQ ID NO: 2) PPO variant (protein)
chain: B1 chain with R89A, V360L
modifications: Synthetic CyPPO10
B4: CyPPO10 V305L + F360M: CyPPO10 (SEQ ID NO: 2) PPO variant (protein)
chain: B1 chain with V305L, V360M
modifications: Synthetic CyPPO10
B5: CyPPO10 R89A + V305T + F360M: CyPPO10 (SEQ ID NO: 2) PPO variant (protein)
chain: B1 chain with R89A, V305T, V360M
modifications: Synthetic CyPPO10
B6: CyPPO10 R89V + F360I: CyPPO10 (SEQ ID NO: 2) PPO variant (protein)
chain: B1 chain with R89V, V360I
modifications: Synthetic CyPPO10
B7: CyPPO10 R89A + A167L + F360M: CyPPO10 (SEQ ID NO: 2) PPO variant (protein)
chain: B1 chain with R89A, A167L, V360M
modifications: Synthetic CyPPO10
B8: CyPPO10 V165C + F360M: CyPPO10 (SEQ ID NO: 2) PPO variant (protein)
chain: B1 chain with V165C, V360M
modifications: Synthetic CyPPO10
B9: CyPPO10 R89A + F360M: CyPPO10 (SEQ ID NO: 2) PPO variant (protein)
chain: B1 chain with R89A, V360M
modifications: Synthetic CyPPO10
B10: CyPPO10 R89A + F360I: CyPPO10 (SEQ ID NO: 2) PPO variant (protein)
chain: B1 chain with R89A, V360I
modifications: Synthetic CyPPO10
B11: CyPPO10 V165S + F360I: CyPPO10 (SEQ ID NO: 2) PPO variant (protein)
chain: B1 chain with V165S, V360I
modifications: Synthetic CyPPO10
B12: CyPPO10 S60T + I340T + F360I: CyPPO10 (SEQ ID NO: 2) PPO variant (protein)
chain: B1 chain with S60T, I340T, V360I
modifications: Synthetic CyPPO10
B13: CyPPO10 V165S + F360L: CyPPO10 (SEQ ID NO: 2) PPO variant (protein)
chain: B1 chain with V165S, V360L
modifications: Synthetic CyPPO10
B14: CyPPO10 R89L + F360I: CyPPO10 (SEQ ID NO: 2) PPO variant (protein)
chain: B1 chain with R89L, V360I
modifications: Synthetic CyPPO10
B15: CyPPO10 V305M + F360M: CyPPO10 (SEQ ID NO: 2) PPO variant (protein)
chain: B1 chain with V305M, V360M
modifications: Synthetic CyPPO10
B16: CyPPO10 A167L + F360I: CyPPO10 (SEQ ID NO: 2) PPO variant (protein)
chain: B1 chain with A167L, V360I
modifications: Synthetic CyPPO10
B17: CyPPO10 V165C + A167C + F360M: CyPPO10 (SEQ ID NO: 2) PPO variant (protein)
chain: B1 chain with V165C, A167C, V360M
modifications: Synthetic CyPPO10
B18: CyPPO10 V305T + F360I: CyPPO10 (SEQ ID NO: 2) PPO variant (protein)
chain: B1 chain with V305T, V360I
modifications: Synthetic CyPPO10
B19: CyPPO10 S60T + V165S + F360I: CyPPO10 (SEQ ID NO: 2) PPO variant (protein)
chain: B1 chain with S60T, V165S, V360I
modifications: Synthetic CyPPO10
B20: CyPPO10 S60T + V165S + F360M: CyPPO10 (SEQ ID NO: 2) PPO variant (protein)
chain: B1 chain with S60T, V165S, V360M
modifications: Synthetic CyPPO10
B21: CyPPO10 A167I + F360M: CyPPO10 (SEQ ID NO: 2) PPO variant (protein)
chain: B1 chain with A167I, V360M
modifications: Synthetic CyPPO10
B22: CyPPO10 V165C + A167I + F360M: CyPPO10 (SEQ ID NO: 2) PPO variant (protein)
chain: B1 chain with V165C, A167I, V360M
modifications: Synthetic CyPPO10
B23: CyPPO10 A167C + F360M: CyPPO10 (SEQ ID NO: 2) PPO variant (protein)
chain: B1 chain with A167C, V360M
modifications: Synthetic CyPPO10
B24: CyPPO10 V165C + A167L + F360M: CyPPO10 (SEQ ID NO: 2) PPO variant (protein)
chain: B1 chain with V165C, A167L, V360M
modifications: Synthetic CyPPO10
B25: CyPPO10 V165S + F360V: CyPPO10 (SEQ ID NO: 2) PPO variant (protein)
chain: B1 chain with V165S
modifications: Synthetic CyPPO10
B26: CyPPO10 V165S + F360M: CyPPO10 (SEQ ID NO: 2) PPO variant (protein)
chain: B1 chain with V165S, V360M
modifications: Synthetic CyPPO10

This experiment deals with CyPPO10. Description: PPO enzyme activity and IC50 by herbicides, CyPPO10 wild type and variants (MBP-PPO fusion). The class given is biochemical, Thermosynechococcus elongatus BP-1. To be noted: PPO enzyme activity of CyPPO10 protein, wild type = 100. On the procedure:
The enzyme activities of PPO protein and PPO protein variants were examined, and inhibition assay by PPO-inhibiting herbicides was conducted. It was confirmed that the PPO protein has low water-solubility, but in case of being expressed as a fusion protein with MBP (maltose binding protein) (MBP-PPO), the PPO protein is able to be stably expressed as water-soluble form. Therefore, the wild type and variant proteins which were expressed in the form of fusion protein with MBP were used in the present test (refer to FIG. 4).
In order to express wild type genes and mutant genes of CyPPO10 and CyPPO13 (refer to Example 1 and Example 4), those genes were introduced to pMAL-c2X vector (refer to FIG. 5) respectively, and then cloned to BL21 (DE3) E. coli (CodonPlus).
The enzyme activity of the purified wild type protein and variant proteins of CyPPO10 and CyPPO13 was measured by the following process.
At first, a substrate of PPO protein, Protoporphyrinogen IX was synthesized. This process was performed in the space where nitrogen gas is streamed. 6 mg of protoporphyrin IX was dissolved in 20% (v/v) EtOH 20 ml, and stirred under dark condition for 30 minutes. The obtained protoporphyrinogen IX solution was put into a 15 ml screw tube in an amount of 800 and flushed with nitrogen gas for 5 minutes. To this, 1 g of sodium amalgam was added and vigorous shaking was performed for 2 minutes. The lid was open to exhaust hydrogen gas in the tube. Thereafter, the lid was closed and incubated for 3 minutes. The […] was filtered using syringe and cellulose membrane filter. To 600 μl of the obtained […], 2M MOPS [3-(N-morpholino)propanesulfonic acid] was added in an amount of approximately 300 thereby adjusting pH to 8.0. To determine the enzyme activity of PPO protein, a reaction mixture was prepared with the following composition (based on 10 ml): 50 mM Tris-Cl (pH 8.0); 50 mM NaCl; 0.04% (v/v) Tween 20; 40 mM glucose (0.072 g); 5 units glucose oxidase (16.6 mg); and 10 units catalase (1 μl).
Two hundred microliters (200 μl) of reaction mixture containing a purified PPO protein were placed in 96 well plates, and preincubated for 30 min at room temperature to reduce the oxygen concentration by the reaction of glucose oxidase-catalase. The mineral oil was layered and then the reaction was initiated by adding the substrate, […], to a final concentration of 50 μM. The reaction proceeded at room temperature for 30 min and the fluorescence of protoporphyrin IX was measured using Microplate reader (Sense, Hidex) (excitation: 405 nm; emission: 633 nm). To calculate the PPO enzyme activity, protoporphyrinogen IX solution was kept open in the air to oxidize the solution (overnight). To this, 2.7N HCl was added, and the absorbance at 408 nm was measured. A standard curve was generated using standard protoporphyrin IX, and the PPO activity was measured by calibration of protoporphyrin IX using the standard curve of protoporphyrin IX.
The final concentration of each herbicide was as follows: […]
Regarding B1, the “Activity (%)” value is 56%. With B2, the “Activity (%)” value was 62%. On to B3, for which the “Activity (%)” value came out at 30%. Regarding B4, the “Activity (%)” value is 82%. As to B5, the “Activity (%)” value is given as 5%. As to B6, the “Activity (%)” value stood at 57%.

With B7, the “Activity (%)” value is 7%. Consider B8, for which the “Activity (%)” value is 93%. Regarding B9, the “Activity (%)” value came to 67%. For B10, the “Activity (%)” value turned out to be 38%. On to B11, for which the “Activity (%)” value turned out to be 63%. As to B12, the “Activity (%)” value worked out at 5%. Consider B13, for which the “Activity (%)” value is 59%. For the molecule B14, the “Activity (%)” value is recorded as 51%.

For B15, the “Activity (%)” value is reported as 87%. In the case of B16, the “Activity (%)” value amounted to 32%. With B17 the figure was 91%.

For B18, the “Activity (%)” value was found to be 10%. Take B19: the “Activity (%)” value turned out to be 12%. On to B20, for which the “Activity (%)” value turned out to be 17%. With B21 the figure was 85%. For the molecule B22, the “Activity (%)” value worked out at 75%. Regarding B23, the “Activity (%)” value stood at 90%. With B24 the figure was 83%.

In the case of B25, the “Activity (%)” value is given as 52%.

As to B26, the “Activity (%)” value was 78%.

The record behind these values is patent US11466286B2, “Methods and compositions for conferring and/or enhancing herbicide tolerance using protoporphyrinogen oxidase or variant thereof” (FarmHannong Co., Ltd., priority 2016, dated 2022).
